Assay: soluble on expression in E. coli; label from the status in PepcDB or PDB records

Sequence | soluble on expression in E. coli
MSLSEYRRKRSFDKTREPEPGKTLPPGQRAIFVVQLHHASRRHYDFRLQVGDALKSWAVPKGPSYDPKVKRMAVEVEDHPVDYASFEGEIPRGEYGGGHVAQFDHGVWATAGDPEAQLAKGHLRFELFGNKLKGGWHLVRSGKPARQPQWLLFKEDDAYAGLEHHHHHH | soluble
MSLSGIYERLQSLESLDLKSLDKNRTMLLIVDINKGFAKEGALYSDRIEKLISPISNLANYALNSGIRVKAFTDYHTEDSIELKAYPKHCMKDTDEWELVDELNLEGIEVIKKNSTNGFLEENFILNKEEIDNVIIVGDCTDICIYQLAISLRAEFNRVNKDGEIYVPKKLVDTFDMPMHKANFMNYVFLNSMLDNGVKVIEDIILDEGHHHHHH | soluble
MSLSGRYNMNIILGATGQVGSMLVDNLLGKGQPVRAVVRDGLKAQGLKNKGVEVKIADYLDVEALKKAFQGGSSVFLLTPENPESENFINEIQRIMSNYREAVLSSGISKIVGLSSMGAQHKSGTGNLMASYMLEHAFSDLEIEQVFVRPAYYFSNWLGYLELVREYGILPTFFPPELELPMIAPPDVAGFLSDVMTCKTQQERIYEISGPHDYSSSDIAKIFGDVLNKNVTLQQVLPEEWENTLIQAGFSKDGTRNLMLMTKAVIDGKTKNETTNRLRFSTNFKNYLQSVILNMSEGHHHHHH | soluble
MSLSGTDIHTSDYYFLFEEKFRGSRELVKARLRRYIPYFKGCRRVLDIGCGRGEFLELCKEEGIESIGVDINEDMIKFCEGKFNVVKSDAIEYLKSLPDKYLDGVMISHFVEHLDPERLFELLSLCYSKMKYSSYIVIESPNPTSLYSLINFYIDPTHKKPVHPETLKFILEYLGFRDVKIEFFEECEELTKLAKIDSNTVSEEVIRVINENIEKLNRILFGPQDYAIIAKKEGHHHHHH | soluble
MSLSHAETIKLGMSIPLSGSGANWGKGSEWLCAKAAEEIKAAGGVKVQGKVYDFECVGYDNKYNAAEGAKVAQALVSRDGVKYVAGSIGVAPVRALQSLTERRGVLLFTAAWGNSIKGPKFPLTFTQMNSVNEISEPMIAHVKKLHPEIKTVVLLNPNDATGQETEKVAKAAWEKNGVKVLASDWYERGTSEFQPIAAKLNSLKPDLVDLASTPPADAGLVFRELKALGWNGVKVVEVGTGADGLLATGKDAVDGTYLGAAVAVDGLSAHQKALNDGVKKVTGENINSVQIGFYDSVYAIKAAMEKAQSVDPQQVAKVMPDVKFQSFFGEVDFGGKSVYGSDQQMQLPVIITQISGTALKEVGRVQKEGHHHHHH | soluble
MSLSHMGIFKFANGTIRVKDLEKSIEFYRDVIGMHELAREKGVVYFGCGADETFDIAIKEGGTGVEQFALQVADEEDIQYYEKKLTNLGISTQRMSNPEPGKKVALRFAAPSGHQLELALMEDRPHYLHPVAGHKGSRGIGILDADHITLHTKDVKGLAEFLQEALDFRVADVFEPAPGVWGAAWTHASDYHHDVALIGTSEDTTLHHFAFLVSGFEDMKRACDLLAQAGYKIETGPGRHGVGGNLFTYFLDPSGNRIELSAEMPRADRSVPHKVWPDFPPAFSTWGALPPESFAKGEGHHHHHH | soluble
MSLSIASADRWSDPMPTTATTFEEFRQRVDYSLLQALKPDPEATSDGNDHRPRPVFSGHWVPVRPTPIPEPKYVAHSFILFAELGISDDLAHNSDFTRLFSGDASVAAEPMHSWGWATGYALSIYGTEYIQQCPFGTGNGYGDGRAMSIVEGVFEGQRWEMQLKGGGPTPYCRGADGRAVLRSSVREFLAQEFMHALGVPTSRSLTLYRSEAETVRRPWYSDHSRSFDPDVMVDNQAAISTRVAPSFLRVGQIELFARRARDNAHPNAHDELRLIVQHLIDRNYRAEIDATLPFHQQVLELARLFRGRLTALVANWMRVGYCQGNFNSDNCAAGGYTLDYGPFGFCELFDPRFQPWTGGGAHFSFFNQPAAAEANYRMFWRSLRTLLEGDDAAQRELDQLNEGFAVAMQQQLEAMWASKLALPAYDETLVTELLQLLVAAKADYTKAFRLLSTIPDHVAELHPSFYLPSSEDLDQRWQTWLQRWRERITANGDLEETSAAMRRVNPAITWREWLIAPAYQQAEQGDNSLVLELQTLFSSPYSAPSTELAARYDQLRPQQFFSAGGIAHYSCSSEGHHHHHH | not soluble
MSLSIIVQKYGGTSVGSVQRIEHVANRIIATAASGKKVVVVVSAMGKTTDELVGLASEITDEPRKREMDMLLATGEQVTIALLAMALHKRGQEATSLTGWQAGMITESHHGNARILEVERARMDELLDKVHVVIVAGFQGIDQQGEIMTLGRGGSDTSAVAIAAALKAERCEIYTDVTGVFTTDPRVVKQARKLQTISYDEMLEMANLGASVLHPRAVEFAKNYEIPLLVASSMVDEPGTMIEEEGTMEQNLLVRGIAFENDVTKVTVHGLPNEIHTLPTLFAHLSAAGINVDIIIQNQTDSGMAISFSITQSSLKETLARLEELKGELSFQGIDYEEELAKVSIVGSGMVSNPGVAAKMFEILAANDIAIKMVSTSEIKVSAVIDEELMVLAVEMLHEQFKLHEEEPAVAVKVEGHHHHHH | soluble
MSLSIKLVAIDIDGTLLNSQHKITPRVKEALQKANEQGVRIVLCTGRPLPGVKEQLDELALYGENDFVITYNGSLVQATKDNTIISRYTLSYEDFLEIEMYSRKVGAHLHTIDDSAIYTANRNIGKYTIHEASLVNMPLKYRTVDEMTPEMNIIKMMMIDEPEVLDPAIAKLPLHFTEKYTTVKSTPFYYEIMNKNASKGNALAKLADHLGLNKDEVMAIGDNENDLSMIDYAGIGVAMGNATENVKTIADVHTTSNDEDGVAQIIEKMVLIEGHHHHHH | soluble
MSLSITVLADIHLDERYIETGSQEVFCRENQDRPEAKYSLPGCDSSESLVDAALASLQKEGPYNVMVVLGDIGPHSSESPEMTQRAIKAIADKLRRLFINKPPEQEMIILPVIGNNDVFPTYAVPTEDGDPQLLFVADQFKDLMTTEGYRQFQRRGYYSVPLSKHRVTFLVINANYYSVRHRELGEDPADQFKWVENQMIEAKAKGYRVILISHIPFGVNVYDESEALHSQYTDRIRSILRRYASTVLACLYGHYHSAYPLVLSAGEEPLVPMFICPSIAPSNYNNPGYYVFHISPLHEVDYDHYALNIEAANMQHREMHNSTELASFDCLYRFSQRYRPWLGLRALPTAQNIAHLYEHMLNDDFVWYQVRAATTSMLSERRLDFLQMAVDKAFMDAYNLSNEGHHHHHH | soluble
MSLSKMAALITQEIGSFRKPEYLSMEFHKIEGTEKFKELAERATIDTLKIFENTGLDNVGIGGEMYRWEMYEHPAERIKGLIFYGMVRSFDNRYYRKGSVIDKIERRGSFHMDEVEFVAKSTKKPIKIPITGPYTMMDWSFNDHYNDRHELAMEFARIINEELKEIQSKWPYISNGRKLEIQIDEPATTTHPDEMDIVVDSVNKSIEGIDAELSLHVCYSRDYRLLYDRIPELNIDGYNLEYSNRDTTDLGVEDAKRPGFQDIKYFNEVNESLQRKKFIGVGVTDVHIDFIEPVKLIEDRIKYVLNIIKDPELVKLNPDCGLRTRSRSIGEQKLRNMVIAKNNVLKDISEGHHHHHH | not soluble
MSLSKQIVILGAGYGGLLAALNVRKYYSKSEAQVTVINQYPTHQIITELHRLAAGNVSEQAVAMPLTKLFKGKDIDLKIATVESFSVDSKEIKLAGGTTLSYDALVVALGSKTAYFGIPGLEENSMVLKSAADANKIYKHVEDRIREYAKTKNEADATIVIGGGGLTGVELVGELADIMPKLAKSHGVNPKEVKLLLVEAGPKILPVLPDHLIERATTSLEARGVTFLTGLPVTNVAGNEIDLKDGQKLVANTFVWTGGVQGNPLIGESGLEVNRGRATVDAYLQSTSHKDVFVAGDSAVVFAPDGRPYPPTAQIAWQMGELIGYNLYAALEGKAFEEFAPVNSGTLASLGRKDAVATIGASNTPLKGLPASLMKEASNVRYLSHIKGLFSLAYEGHHHHHH | soluble
MSLSKRILSPLQNNGILGEFYGVIIRAIEENCGRLGMNVELKMLENFSESNGADGYIFIGGDLSEKTLKEIKSRKKPFVLVDHYIPGERVDCVISDGYDGAVYATNYLISKGFKRIVHVHGPLHPYGFKMRYDGYKDAMEKAGLMPRFYECDDTEEGTRKVIDIMLNSYGTPEAIFTSNDSIAFWVIKRLKEHNIKVPDDVSVIGFDDIVDAENFDPPLTTLRVFKYEMGCLACKRLHELLTGINPHPVRILVFTQFVKRKSTKEGHHHHHH | soluble
MSLSLALQYFKALSDETRLRLIHVLNRHELSVNELVSILEMGQSRVSRHLKILTGAGLLTSRRDGLWVFYSAAAEGDGRAFLDAVTPFVTTDMVLQADLDMAQKIIEERALKTRQFFNAIAEDWDELNREVLGGFDLAGAVAEAMPQCETAVDLGCGTGSVIERMLQRSQQVIGVDGSPRMLELARRRFVEGAERVSLRIGELDHLPLRDGEADFASINMVLHHLSDPGVALGEIRRVLRLGGQLMVTDFDRHDNERMRSDYGDRWLGFEGVQLEGLLREAGFTVRECRRQGVAKGLALHLMLAEKTQEGHHHHHH | soluble
MSLSLGISCFLVKKKSILNKDFESKEKLSSQTFEPEKVEKFLWDIYDKYGFDFTEYRKDSIIRRIKISMLRYCMTNFDEFSHLALTDQDVFEQLFLDFSINTTNFFRDPEVFMFLREKVLLFLDSYSHIRIWCVGCSNGKEPYSLAIILKELGMLHKVQIYATDINPYVIEEAKNGLYSVSTINTDIANYKKSGGSKNFTDYFEVNGNYMKVKDDFKDNILFFQHSVIEKGILNEFQMILCRNVMIYFDIPLQKKVLRHFYNSLDSGGFLVMGKSEGMLLNNGYEYFADYNEKYSVYRRKEGHHHHHH | not soluble
MSLSLRDEALEMHKRNQGKLEVKPNVKVTNKEELSLAYSPGVAEPCKDIYEDKRKVYDYTIKGNTVAVITDGTAVLGLGNIGPEASIPVMEGKAVLFKSFAGINGVPIALNTTDTEEIIKTVKLLEPNYGGINLEDISAPRCFEIEERLKKETNIPVFHDDQHGTAIVTMAGLVNALRVVNKDIAKIKVVLNGAGAAGIAIVKLLYAYGVRNMVMCDSRGAIFEGRSYGMNPTKDVVAKWTNKDKIEGSLEEVVKDADVFIGVSVANALSQDMVKSMADNPIIFAMANPNPEIIPDDAKAAGARVVGTGRSDYPNQINNVLAFPGIFRGALEVEATHINEEMKKAAVEAIADLIDSSELNEDYCIPGPFDKRVAPSVARNVAKAAMESGVARIEVDPQDVYDKTMKLTDLQEGHHHHHH | soluble
MSLSLWQQCLARLQDELPATEFSMWIRPLQAELSDNTLALYAPNRFVLDWVRDKYLNNINVLLNDFCGMDAPLLRFEVGSKPLVQTISQPAQSHHNPVSVARQQPVRMAPVRPSWDNSPVQAEHTYRSNVNPKHTFDNFVEGKSNQLARAAARQVADNPGGAYNPLFLYGGTGLGKTHLLHAVGNGIIARKPNAKVVYMHSERFVQDMVKALQNNAIEEFKRYYRSVDALLIDDIQFFANKERSQEEFFHTFNALLEGNQQIILTSDRYPKEINGVEDRLKSRFGWGLTVAIEPPELETRVAILMKKADENDIRLPGEVAFFIAKRLRSNVRELEGALNRVIANANFTGRSITIDFVREALRDLLALQEKLVTIDNIQKTVAEYYKIKIADLLSKRRSRSVARPRQMAMALAKELTNHSLPEIGDAFGGRDHTTVLHACRKIEQLREESHDIKEDFSNLIRTLSSLEHHHHHH | soluble
MSLSNHSSDIEVGHSMNLTNHFLVAMPSMKDPYFKRSVIYICEHNQDGAMGLMINAPIDITVGGMLKQVDIEPAYPQSHQENLKKPVFNGGPVSEDRGFILHRPRDHYESSMKMTDDIAVTTSKDILTVLGTEAEPEGYIVALGYSGWSAGQLEVELTENSWLTIEADPELIFNTPVHEKWQKAIQKLGISPAQLSSDAGHEGGSHHHHHH | soluble
